Test results reported in the Immune Epitope Database (IEDB).

Assays:
[1] = biological target: HLA-A*02:01; test: IEDB peptide-MHC binding, purified MHC/competitive/fluorescence; filed as Kd, often an IC50 or EC50 that approximates it; ≥ and ≤ were set here for values at or beyond the usual limits of such assays
[2] = biological target: HLA-A*02:03; test: as above; conditions: source organism: Vibrio vulnificus YJ016
[3] = biological target: HLA-A*02:12; test: as above; conditions: source organism: Vibrio vulnificus YJ016
[4] = biological target: HLA-A*02:16; test: as above
[5] = biological target: HLA-A*02:19; test: as above; conditions: source organism: Vibrio vulnificus YJ016
[6] = biological target: HLA-A*03:01; test: as above; conditions: source organism: Vibrio vulnificus YJ016
[7] = biological target: HLA-A*26:01; test: as above; conditions: source organism: Vibrio vulnificus YJ016
[8] = biological target: HLA-A*68:02; test: as above; conditions: source organism: Vibrio vulnificus YJ016
[9] = biological target: HLA-B*15:01; test: as above; conditions: source organism: Vibrio vulnificus YJ016
[10] = biological target: HLA-B*27:03; test: as above; conditions: source organism: Vibrio vulnificus YJ016
[11] = biological target: HLA-B*39:01; test: as above; conditions: source organism: Vibrio vulnificus YJ016
[12] = biological target: HLA-B*46:01; test: as above; conditions: source organism: Vibrio vulnificus YJ016
[13] = biological target: HLA-B*57:01; test: as above; conditions: source organism: Vibrio vulnificus YJ016
[14] = biological target: HLA-B*15:17; test: IEDB peptide-MHC binding, purified MHC/direct/fluorescence; filed as Kd, often an IC50 or EC50 that approximates it; ≥ and ≤ were set here for values at or beyond the usual limits of such assays
[15] = biological target: HLA-B*57:01; test: as above
[16] = biological target: HLA-C*15:02; test: as above
[17] = biological target: HLA-B*15:01; test: as above
[18] = biological target: HLA-A*01:01; test: as above
[19] = biological target: HLA-A*02:01; test: as above
[20] = biological target: HLA-A*03:01; test: as above
[21] = biological target: HLA-A*11:01; test: as above
[22] = biological target: HLA-A*29:02; test: as above; conditions: source organism: Mammarenavirus juninense
[23] = biological target: HLA-A*31:01; test: as above
[24] = biological target: HLA-A*69:01; test: as above; conditions: source organism: Mammarenavirus juninense
[25] = biological target: HLA-B*07:02; test: as above
[26] = biological target: HLA-B*08:01; test: as above; conditions: source organism: Mammarenavirus juninense
[27] = biological target: HLA-B*18:01; test: as above
[28] = biological target: HLA-B*27:05; test: as above
[29] = biological target: HLA-B*40:01; test: as above
[30] = biological target: HLA-B*44:02; test: as above; conditions: source organism: Mammarenavirus juninense
[31] = biological target: HLA-B*46:01; test: as above
[32] = biological target: HLA-B*48:01; test: as above
[33] = biological target: HLA-B*58:01; test: as above
[34] = biological target: HLA-B*51:01; test: as above; conditions: source organism: Yersinia pestis
[35] = biological target: HLA-A*68:02; test: as above; conditions: source organism: Escherichia coli O157:H7
[36] = source organism: Vibrio vulnificus YJ016
[37] = source organism: dengue virus type 3
[38] = source organism: Mammarenavirus juninense
[39] = source organism: Entamoeba histolytica HM-1:IMSS
[40] = source organism: Escherichia coli O157:H7

Measured: Kd

IALPVAWLF
0.0624 µM: [13]
≥ 20 µM: [1]; [36] | [2] | [3] | [4]; [36] | [5] | [6] | [7] | [8] | [9] | [10] | [11] | [12]

ICSAVPVHW
0.417 µM: [15]; [37]
0.373 µM: [14]; [37]

KIFLHFSIL
0.919 µM: [16]; source organism: Rickettsia sibirica 246

KMIDGIGRF
≥ 20 µM: [16]; source organism: Influenza A virus (A/81/HO)
0.194 µM: [17]; source organism: H1N1 swine influenza virus (A/swine/Korea/S10/2004(H1N1))

QVKRREGMF
≥ 20 µM: [18]; [38] | [19]; [38] | [20]; [38] | [21]; [38] | [22] | [23]; [38] | [24] | [25]; [38] | [27]; [38] | [28]; [38] | [29]; [38] | [30] | [31]; [38] | [32]; [38] | [15]; [38] | [33]; [38]
1.55 µM: [26]

SLKERIDML
0.0013 µM: [1]; [39]
0.0028 µM: [4]; [39]

TVADVRHCL
0.495 µM: [16]; source organism: Vaccinia virus Copenhagen

WANDFNHHY
≥ 20 µM: [25]; source organism: Yersinia pestis | [34]
0.029 µM: [17]; source organism: Yersinia pestis CA88-4125

WLSVIAFGK
1.63 µM: [20]; [40]
≥ 20 µM: [18]; [40] | [19]; [40] | [23]; [40] | [35] | [25]; [40] | [17]; [40] | [14]; [40] | [27]; [40] | [28]; [40] | [29]; [40] | [31]; [40] | [32]; [40] | [15]; [40] | [33]; [40]
2.24 µM: [21]; [40]
